Measurements: the nanobody polyreactivity screen of Harvey et al. (2022)

Test: yeast display, Sf9 membrane polyspecificity reagent, FACS + sequencing; frameworks hold sequencing errors
Method in brief: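 A synthetic nanobody library was expressed on Saccharomyces cerevisiae BJ5465 by galactose induction for 36–48 hours. The library was stained for 1 hour at 4 °C with 10% biotinylated, detergent-solubilized Sf9 membrane reagent and enriched with streptavidin microbeads before FACS. Low and high (top ~1%) gates were set on anti-HA fluorescence for expression and streptavidin fluorescence for reagent binding, and each polyreactivity label reflects the gate of origin.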

Sequence	polyreactivity (PSR sort gate)
QVQLVESGGGLVQAGGSLRLSCAASGITFNSYAMGWYRQAPGKERELVAAISGSGSSTYYADSVKGRFTISRDNAKNTVYLQMNSLKPEDTAVYYCAATGYSSWTYYTHEYWGQGTQVTVSS	low polyreactivity
QVQLVESGGGLVQAGGSLRLSCAASGITFNSYAMGWYRQAPGKERELVAAISWSGGSTYYADSVKGRFTISRDNAKNTVYLQMNSLKPEDTAVYYCNAEYRYYQKTPGRYTNVEYDYWGQGTQVTVSS	low polyreactivity
QVQLVESGGGLVQAGGSLRLSCAASGITFNTYAMGWYRHAPGKERELVAVITWSDGGTYYADSVKGRFTISRDNAKNTVYLQMNSLKPEDTAVYYCAADYDWGYDYWGQGTQVTVSS	low polyreactivity
QVQLVESGGGLVQAGGSLRLSCAASGITFNTYAMGWYRQAPGKERELVAVITWSDGGTYYADSVKGRFTISRDNAKNTVYLQMNSLKPEDTAVYYCAADYYWGYDYWGQGTQVTVSS	low polyreactivity
QVQLVESGGGLVQAGGSLRLSCAASGITFPANAMGWYRQAPGKERELVADISESDGSTYYADSVKGRFTISLDNAKNTVYLQMNSLKPEDTAVYYCNAEWTSFDWGQGTQVTVSS	low polyreactivity
QVQLVESGGGLVQAGGSLRLSCAASGITFPANAMGWYRQAPGKQWELVAAISSYGGSTYYADSVKGRFTISRDNEKNTVDLQMNSLKPEDTAVYYCAAYLSSLGRKYYYWGQGTQVTVSS	high polyreactivity
QVQLVESGGGLVQAGGSLRLSCAASGITFPRYTMGWYRQAPGTERELVAAISSGGSTYYADSVKGRFTISRDNAKNTVYLQMNSLKPEDTAVYYCNAEVPYWYYIYDYWGQGTQVTVSS	high polyreactivity
QVQLVESGGGLVQAGGSLRLSCAASGITFPRYVMGWYRQAPGKEREFVAAINYSGGRTYYADSVKGRFTISRDNAKNTVYLQMNSLKPEDTAVYYCAVDLHVWPFWYDYWGQGTQVTVSS	high polyreactivity
QVQLVESGGGLVQAGGSLRLSCAASGITFPYYAMGWYRQAPGKERELVAAISLSGGTTYYADSVKGRFTISRDNAKNTVYLQMNSLKPDDTAVYYCAARSSKFVTSNRYDYWGQGTQVTVSS	high polyreactivity
QVQLVESGGGLVQAGGSLRLSCAASGITFPYYAMGWYRQAPGKERELVAAITTGGGSTYYADSVKGRFTISRDNAKNTVYLQMNSLKPEDTAVYYCAAANLRARTGPRRGYEYWGQGTQVTVSS	high polyreactivity
QVQLVESGGGLVQAGGSLRLSCAASGITFPYYVMGWYRQAPGKERELVAAISKSVGRTYYADSVKGRFTISRDNAKNTVYLQMNSLKPEDTAVYYCAAYSSYYVHRFQHYDYWGQGTQVTVSS	high polyreactivity
QVQLVESGGGLVQAGGSLRLSCAASGITFQRYVLGWYRQAPGKERELVAAISFTASSTYYADSVKGRFTISRDYAKKTVYLQMNSLKPEDTAVYYCAADGSVPKYVPYPRYYGYGYWGQGTQVTVSS	high polyreactivity
QVQLVESGGGLVQAGGSLRLSCAASGITFQYYAMGWYRQAPGKERELFARISSSGGRTFYADSVKGRFTISRDNAKNTVYLQMNSLKQEDTAVYYCAAGSLSLSNSTVWFEYDYWGQGTQVSVSS	high polyreactivity
QVQLVESGGGLVQAGGSLRLSCAASGITFQYYAMGWYRQAPGKERELVAAISSGGSTYYADSVKGRFTISRDNAKNTVYLQMNSLKPEDTAVYYCAAKRVFFGLNYDYWGQGTQVTVSS	high polyreactivity
QVQLVESGGGLVQAGGSLRLSCAASGITFRANAKGWYRQAPGKERELVAAISARGGSTYYADSVKGRFTISRDNAKNTVYLQMNSLNPEDTAVYYCAKELSQGMRYDYWGQGTQVTVSS	high polyreactivity
QVQLVESGGGLVQAGGSLRLSCAASGITFRAYVMGWYRQEPGKERELVAAINRRGGSTYYADSVKGRFTISRDNAKNTVYLQMNSLKPEDTAVYYCAAGLYSTGYTYDYWGQGTQVTVSS	high polyreactivity
QVQLVESGGGLVQAGGSLRLSCAASGITFRGYAMGWYRQAPGKERELVAAITGSGTSTYADSVKGRFTISRGNAKNTVYLQMNSLKPEDTAVYYCAADTYDPFYYGYGYWGQGTQVTVSS	low polyreactivity
QVQLVESGGGLVQAGGSLRLSCAASGITFRGYAMGWYRQAPGKERELVASITNTDSTYYADSVKGRFTISRDNAKNTVYLQMNSLKPEDTAVYYCNAEADPYSVDYDYWGQGTQVTVSS	high polyreactivity
QVQLVESGGGLVQAGGSLRLSCAASGITFRKYVMGWYRPAPGKERELVAAITRGGSTNYADSVKGRFTISRDNAKNTVYLQMNSLKPEDTAVYYCATRQSWYPRWMDYWGQGTQVTVSS	high polyreactivity
QVQLVESGGGLVQAGGSLRLSCAASGITFRLYAMGWYRQAPGKERELVAAISKRGGSTYYADSVKGRFTISRDNAKNTVYLQMNSLKPEDTAVYYCAADSGWEHRYDYWGQGTQVTVSS	high polyreactivity
QVQLVESGGGLVQAGGSLRLSCAASGITFRNYAMVWSRQAPGKERELVADITTGGSTYADSVKGRFTISRDNAKNTVYLQMISLNPEDTAVYYCAADRDFRTPRLYYWGQGTQVTVSS	low polyreactivity

Sequence	polyreactivity (PSR sort gate)
QVQLVESGGGLVQAGGSLRLSCAASGITFRQYAMGWYRQAPGKERELVAVITSRGGTTYYAVSVKGRFTISRDNAKNTVYLQMNSLKPEDTAVYYCAARYPSYDFYYWGQGTQVTVSS	high polyreactivity
QVQLVESGGGLVQAGGSLRLSCAASGITFRRKAMGWYRQAPGKERELVAAISASGTRTYYADSVKGRLTISRDNAKNTVYLQMNSLKPEDTAVYYCATRVTSRSSGFDYWGQGTQVTVSW	high polyreactivity
QVQLVESGGGLVQAGGSLRLSCAASGITFRRYAMGWYRPAPGKERELVAVISVSGGRTHYADSVKGRFTISRDNAKNTVYLQMNSLKPEDTAVYYCAAQFSYRYYTDEVGYWGQGTQVTVSS	high polyreactivity
QVQLVESGGGLVQAGGSLRLSCAASGITFRRYAMGWYRQAPGKERELVASITSNGGSTYYADSVKGRFTISRDTAKNTVYLQMNSLKPEDTAVYYFAADFAVGQWLTQTSVEYDYWGQGTQLTVSS	high polyreactivity
QVQLVESGGGLVQAGGSLRLSCAASGITFRRYAMGWYRQAPGKERELVAVISVSGGRTHYADSVKGRFTISRDNAKNTVYLQMNSLKPEDTAVYYCAAQFSYRYYTDEVGYWGQGTQVTVSS	high polyreactivity
QVQLVESGGGLVQAGGSLRLSCAASGITFRSYAMGWYRQAPGKERELVAAIRSGGSTSYADSVKGRFTISRDNAKTTVYLQMNSLKPEDTAVYYCAAGGYVPLPDITFWKFGYWGQGTQVTVSS	low polyreactivity
QVQLVESGGGLVQAGGSLRLSCAASGITFRSYAMGWYRQAPGKERELVAAISSTGRTYYADSVKGRFTISRDNAKNTVYLQMNSLKPEDTAGYYCNAKRYIWGQGTQVTVSS	high polyreactivity
QVQLVESGGGLVQAGGSLRLSCAASGITFRVYAMGWYRQAPGKERELVADISGTGGSTYYADSVKGRFTISRDYAKNTVYLQMNSLKPEDTAVYYCAAVYGFYYSFLQDSYGYWGQGTQVTVSS	low polyreactivity
QVQLVESGGGLVQAGGSLRLSCAASGITFRWNAMGWYRQAPGKERELVAAITTRGGGTYYADSVKGRFTISRDNAKNTVYLQMNSLKPEDTAVYYCGAKKSRYPYNYWGQGTQVTVSS	high polyreactivity
QVQLVESGGGLVQAGGSLRLSCAASGITFRYYAMGWSRQAPWKERELVAVISSTGITNYADSVKGRFTISRDNAKNTVYLQMNSLKPEDTAVYYCAAGLWYSYDYWGQGTQVTVSS	high polyreactivity
QVQLVESGGGLVQAGGSLRLSCAASGITFRYYAMGWYRQAPGKERELVAAISIRGRTYYADSVKGRFTISRDNAKNTVYLQMNSLKPEDTAVYYCAAVKRVVAFDYWGQGTQVTVSS	low polyreactivity
QVQLVESGGGLVQAGGSLRLSCAASGITFRYYTMGWYRQAPGKERELVAAISSSGGSTYYADSVKGRFTISRDNAKNTVYLQMNSLKPEDTAVYYCAAESKYATSSPRRDYWGQGTQVTVSS	high polyreactivity
QVQLVESGGGLVQAGGSLRLSCAASGITFSDNTMGWYRQAPGKERELVAAISWRGGLTYYADSVKGRFTISRDNAKNTVYLQMNSVKPEDTAVYYCIAVTSSKARYSSYDYWGQGTQVTVSS	high polyreactivity
QVQLVESGGGLVQAGGSLRLSCAASGITFSFYTMGWYRQAPGKERELVAAMTQDGGSTYYADSVKGRFTISRDNAKNTVYLQMNSLKPEDTAVYYCASDLVVFVQFDVAVDYYYWGQGTQVTVSS	low polyreactivity
QVQLVESGGGLVQAGGSLRLSCAASGITFSHNAMGWYRQAPGKERELVAVIRWSGGRTYYADSVKGRFTISRDNAKNTVYLQMNSLKPEDTAVYYCAARPSTAFPYGKIMDYWGQGTQVTVSS	low polyreactivity
QVQLVESGGGLVQAGGSLRLSCAASGITFSNSAMGWYRQAPGKERELVASITRRGTRTYYADSVKGRFTISRDNAKNTVYLQMNSLKPEDTAVYYCNRSFYSWIDLIYGGYDYWGQGTQVTVSS	high polyreactivity
QVQLVESGGGLVQAGGSLRLSCAASGITFSRNAMGWYRQAPGTDRELGAVISTRGGRTYYADSVKGRFTISRDNAKNTVYLQMNSLKPEDTAVYYCAASPDPYWRRMDYWGQGTQVTVSS	high polyreactivity
QVQLVESGGGLVQAGGSLRLSCAASGITFSRYAMGWYRQAPGKERELVAAISSGGSTYYADSVKGRFTISRDNAKNPVYLQMNSLKPEDTAVYYCAAVILSRWASYREYYYWGQGTQVTGSS	high polyreactivity
QVQLVESGGGLVQAGGSLRLSCAASGITFSSYAMGWYRQAPGKERELVAAISYGGGNTYYADSVKGRFTISRDNAKNTVYLQMNSLKPEDTAVYYCNTLYTSYSGLDYWGQGTQVTVSS	high polyreactivity
QVQLVESGGGLVQAGGSLRLSCAASGITFSTYAMGWYRQAPGKERELVAAINWSGGSTRYADSVKGRFTISRDNAKNTVYLQMNSLKPEDTAVYYCAAEVQGQVGEFDYWGQGTQVTVSS	low polyreactivity
